{"source": "paper PMC5119886", "about": "“POWERDRESS interacts with HISTONE DEACETYLASE 9 to promote aging in Arabidopsis” (eLife, 2016)", "binders": {"B1": {"name": "GST-WRKY53 (GST tagged full-length WRKY53) (natural protein, Arabidopsis thaliana, UniProt Q9SUP6 1-324, looked up)", "chain": "MEGRDMLSWEQKTLLSELINGFDAAKKLQARLREAPSPSSSFSSPATAVAETNEILVKQIVSSYERSLLLLNWSSSPSVQLIPTPVTVVPVANPGSVPESPASINGSPRSEEFADGGGSSESHHRQDYIFNSKKRKMLPKWSEKVRISPERGLEGPQDDVFSWRKYGQKDILGAKFPRSYYRCTHRSTQNCWATKQVQRSDGDATVFEVTYRGTHTCSQAITRTPPLASPEKRQDTRVKPAITQKPKDILESLKSNLTVRTDGLDDGKDVFSFPDTPPFYNYGTINGEFGHVESSPIFDVVDWFNPTVEIDTTFPAFLHESIYY", "notes": "WRKY53 transcription factor, Arabidopsis thaliana; full-length cDNA cloned into pGOOD (pGEX-6P modified by adding a 6XHIS tag at the C terminus); Primers are in Supplementary file 1; source: E. coli, induced with 200 uM IPTG for three hours at 37°C, purified"}}, "biological_target": "T1, HDA9-3xFLAG (HISTONE DEACETYLASE 9, pHDA9::HDA9-3xFLAG/hda9) (Arabidopsis thaliana, UniProt Q8H0W2 1-426)", "T1 construct": "Histone deacetylase 9 (HDA9), RPD3-type deacetylase, Arabidopsis thaliana; genomic DNA with its 1 kb promoter cloned into pEarleyGate302; Primers are in Supplementary file 1; also called HDA9-FLAG; source: Arabidopsis transgenic plants (native HDA9 promoter, hda9 background): in leaf extract for IP-MS; purified on anti-FLAG M2 beads with 3xFLAG peptide elution for the pull-down", "T1 sequence (looked up)": "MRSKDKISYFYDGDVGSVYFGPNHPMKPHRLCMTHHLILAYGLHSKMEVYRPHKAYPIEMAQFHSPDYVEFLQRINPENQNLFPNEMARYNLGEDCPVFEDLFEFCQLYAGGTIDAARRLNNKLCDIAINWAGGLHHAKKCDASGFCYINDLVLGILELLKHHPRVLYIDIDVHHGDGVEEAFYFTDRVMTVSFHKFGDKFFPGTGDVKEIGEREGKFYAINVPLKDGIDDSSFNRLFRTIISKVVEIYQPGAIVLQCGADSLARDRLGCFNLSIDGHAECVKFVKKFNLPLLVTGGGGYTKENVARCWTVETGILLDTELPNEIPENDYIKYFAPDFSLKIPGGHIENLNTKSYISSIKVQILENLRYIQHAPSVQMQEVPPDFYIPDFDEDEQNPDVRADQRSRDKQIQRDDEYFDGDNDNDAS", "assay": "pull-down; purified HDA9-FLAG incubated with GST-tagged protein in 20 mM Tris-HCl 8.0, 200 mM NaCl, 1 mM EDTA, 0.5% Nonidet P-40 for one hour, then Glutathione Sepharose 4B beads for one hour at 4°C; detected with anti-GST and anti-FLAG; two technical replicates", "conditions": "both partners purified"}
{"binder": "B1", "values": [{"measurement": "binding result", "value": "binds"}]}
